± gives the half width of the 95% confidence interval.
How the values were obtained:
[1] = folding stability dG unfold from chymotrypsin proteolysis; higher = more stable
How it was run: (§1)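 Digests were run with trypsin and chymotrypsin at 11 concentrations in threefold dilutions, plus a no-protease condition, on designed mini-proteins in a PA-tagged cDNA display construct. The mini-proteins were under 80 residues, had no cysteine, and were kept only when AlphaFold2 dimer inter-PAE was above 15. After sequencing, Bayesian fitting of the counts gave K50, from which unfolding free energy was derived against a sequence-predicted unfolded-state K50 and a shared folded-state K50, per protease or combined.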

[2] = folding stability dG unfold from trypsin proteolysis; higher = more stable
How it was run: as §1

[3] = folding stability dG unfold (combined trypsin and chymotrypsin); higher = more stable
How it was run: as §1

Sequence | folding stability dG unfold [1] | folding stability dG unfold [2] | folding stability dG unfold [3]
SMTIKLPSKDFKLETLPDGTIKLTVKEPDGTVVTYTFPKGDKITKIEKITPDTIKLTFEKKPRLNPEILLSA [r9_501_JUSTAS] | 3.65 ± 0.053 kcal/mol | 2.16 ± 0.097 kcal/mol | 3.07 ± 0.22 kcal/mol
SMTIRVEGVPPGVTAEELAARLRAELEAAGYEVTSIKVTRRADGSLVVEIEVKPAPPPEPVEVVEEREEESA [r9_953_TrROS_Hall] | 3.75 ± 0.16 kcal/mol | 3.4 ± 0.13 kcal/mol | 3.62 ± 0.17 kcal/mol
SMTITFKTEEEAKKAAEELLKELEKKLKPGQKIKITVTTEDGKTITIEIEIKPPKKEVEVDEETGELKEKSA [r9_596_TrROS_Hall] | 2.26 ± 0.081 kcal/mol | 0.898 ± 0.073 kcal/mol | 1.97 ± 0.18 kcal/mol
SMTITIVVEAPPEEAKEKAEELEKELKEKLDKLREEAKKKGLSEEEIEEELKIKIKVVVVSKEDLEKLKPSA [r9_961_TrROS_Hall] | -0.317 ± 0.11 kcal/mol | 0.989 ± 0.082 kcal/mol | 0.431 ± 0.13 kcal/mol
SMTLTETKVLTTETLSGEEFAKRSGVPVEEIRKSGVKYNVTVTPVEVTYYDPETGKTYKRTSTTVTITPESA [r9_382_JUSTAS] | 0.842 ± 0.11 kcal/mol | 0.354 ± 0.083 kcal/mol | 0.686 ± 0.073 kcal/mol
SMTLTLEDGKLTLTVTETRTTVERDAADPGKWTTRTETRTVTLTLPLEDLEALKKLLEALPPGARVELVPSA [r9_476_TrROS_Hall] | 4.9 ± 0.26 kcal/mol | 3.23 ± 0.09 kcal/mol | 3.91 ± 0.29 kcal/mol
SMTLVLENEDGSLYRIEFDEETGEIYIYNAETGEKYRITFKDGKTEEINAKDLSLEELKALPGLKIEPVPSA [r9_205_TrROS_Hall] | 3.285 ± 0.023 kcal/mol | 2.74 ± 0.061 kcal/mol | 3.13 ± 0.056 kcal/mol
SMTTTTLPDGTTVTTLSDGTVKTVTHYPDSVVTETSPITYKLPDGREFTTKEEAEAYEKETGIPVSPALASA [r9_660_JUSTAS] | 0.255 ± 0.23 kcal/mol | 0.62 ± 0.036 kcal/mol | 0.4 ± 0.16 kcal/mol
SMTVTTDPSSLTFTLPPTYTSVEQAREALEELGFKLPSSVKSITIESVDEGKNLNTITVTFDDPEALKKLSA [r9_820_JUSTAS] | 0.922 ± 0.089 kcal/mol | 0.74 ± 0.03 kcal/mol | 0.913 ± 0.082 kcal/mol
SMTVVTVEKTPDGGVTITVYVPETGEEVEIPVTDPEVQKKATEDPNTTVKVPKEVLESFYPDRITSLSYTSA [r9_390_JUSTAS] | -0.169 ± 0.22 kcal/mol | 0.134 ± 0.098 kcal/mol | 0.0747 ± 0.19 kcal/mol
SMVIEIPDGTPLEEIIKKVKEAKEKGEPMEVVVTVPNDESVIQALKEAGFEVEVEKDEVKNVTLYKVKLPSA [r9_759_JUSTAS] | 2.53 ± 0.025 kcal/mol | 2.7 ± 0.15 kcal/mol | 2.59 ± 0.076 kcal/mol
SMVKTIEIEIVLPPGEWVKLTEEDIKEKIEKELPGWKILSIDITKEERLVPGGTEPLVVIKAKILVEKKESA [r9_1189_JUSTAS] | 3.19 ± 0.14 kcal/mol | 4.26 ± 0.26 kcal/mol | 3.83 ± 0.21 kcal/mol
SMVLARIKVRVRDPVTGEELDVEIDLLAPVEVAEEAAEEFRKLFPGLEVEVDLVEVVPLPPVTPEQLAKESA [r9_421_TrMRF] | 2.823 ± 0.017 kcal/mol | 1.82 ± 0.046 kcal/mol | 2.48 ± 0.083 kcal/mol
SMVTETSEEVKLPSPVRLLIDKKITTFPESGVVEVPTLVTVIPPSGPDTTLPYRVLYTINDDTYTEKRLLSA [r9_154_JUSTAS] | -0.0857 ± 0.12 kcal/mol | -0.277 ± 0.085 kcal/mol | -0.125 ± 0.14 kcal/mol
SMVTVDEKEDPNSDNKIYTVSLPENGEDVITITKAPDGTTTVTLHYPDGSTTTKTFPGNTPVTEAIKLLLSA [r9_346_JUSTAS] | 1.39 ± 0.083 kcal/mol | 2.23 ± 0.12 kcal/mol | 1.74 ± 0.15 kcal/mol
SMVTVERPESTKTIDAPPSATVEFDPATGTLRVYSPDGTATTVPLSPTWSIQPSDNSVTVTAPPASPAAPSA [r9_653_JUSTAS] | 0.669 ± 0.1 kcal/mol | 0.056 ± 0.059 kcal/mol | 0.421 ± 0.066 kcal/mol
SMVVLPVRYPDLSPEEARAAVEALAAEIEAAVGAEVRVEVEVERAPDGTPVRVLVTATVVIRTAADALLLSA [r9_21_JUSTAS] | 1.16 ± 0.068 kcal/mol | 0.946 ± 0.061 kcal/mol | 1.09 ± 0.12 kcal/mol
SMYKLSVYRNGQPVPEEEALERVKRIEEELGREVDPEELARLLAAEPDTVVTVTKYAEPGKPIGTLTYTRSA [r9_1045_JUSTAS] | 1.4 ± 0.17 kcal/mol | 1.32 ± 0.08 kcal/mol | 1.39 ± 0.16 kcal/mol
SMYVIETSANKTYTVNVPPDGLVTITYPDGSTETRKFTSEEDLEAFAEELSKKYPDAPATIKPVPLEELGSA [r9_1206_JUSTAS] | 0.473 ± 0.26 kcal/mol | 1.21 ± 0.11 kcal/mol | 0.959 ± 0.25 kcal/mol
SNELAKEIADELKKQGYEVKDVEVQYSPDDGMVEIEARIRHPDDGRQYRIDIHVNPDDGKITQVKIEPRPSA [r9_814_TrROS] | 0.644 ± 0.17 kcal/mol | 0.857 ± 0.028 kcal/mol | 0.825 ± 0.17 kcal/mol
SNPISAVVPSPGGRYVLVVEYKDGSVEVYEFEGLSTAEEAKERALALLKESTEGEPREITRVVVLPAPPGSA [r9_1135_TrMRF] | 4.3 ± 0.051 kcal/mol | 4.3 ± 0.17 kcal/mol | 4.33 ± 0.11 kcal/mol
SNPWVEITIYFPMRPDPNGKMQPLSPSELLEELLKQGFPIKDIDIDEVTDNYIPITIRIDAKDGKIEIEWSA [r9_225_TrROS] | 3.18 ± 0.13 kcal/mol | 2.12 ± 0.21 kcal/mol | 2.85 ± 0.19 kcal/mol
SNVHIHVEPDPDGRVKITLMMPPDNPDEFAEEIAENLGYPVKITDIEPFPFKKNGKPREYYMIEIEIRLPSA [r9_431_TrROS] | 2.56 ± 0.2 kcal/mol | 1.15 ± 0.13 kcal/mol | 2.17 ± 0.25 kcal/mol
SNYLMIRIKEIDPNNPNKIKIEDIHPMPDNGNVQINIEHPGQEIYVMFNSADDAEEFINTLLKNYGLKPESA [r9_258_TrROS] | 1.6 ± 0.11 kcal/mol | 0.925 ± 0.053 kcal/mol | 1.33 ± 0.098 kcal/mol
SPEIKIELVYDEETEELYLEIEIRFPESEEEAIEALKKLLEELGFEVVEIEEIEVEEDGTVRIRVRIRKKSA [r9_876_TrROS_Hall] | 4.47 ± 0.7 kcal/mol | 4.87 ± 0.31 kcal/mol | > 6 kcal/mol
SPFIMIRIDIERKNGKEVEMMFPVPANNIKNNLRDHLGPGYKVKITDIEPIDPEQFPPGQMIKIRYRVKPSA [r9_803_TrROS] | 1.71 ± 0.13 kcal/mol | 1.73 ± 0.048 kcal/mol | 1.79 ± 0.18 kcal/mol

— the supplement of paper PMC12764529
